Source: patent US20250019450A1 (DIAGONAL THERAPEUTICS, published 2025)
Residue numbers refer to the chain shown, from its start.

T1: cyno IL-12RB2 overexpressed on 293T cells (Example 2) (cyno, UniProt A0A2K5VNI7 24-860)
T1 construct: whole, on cells
T1 sequence: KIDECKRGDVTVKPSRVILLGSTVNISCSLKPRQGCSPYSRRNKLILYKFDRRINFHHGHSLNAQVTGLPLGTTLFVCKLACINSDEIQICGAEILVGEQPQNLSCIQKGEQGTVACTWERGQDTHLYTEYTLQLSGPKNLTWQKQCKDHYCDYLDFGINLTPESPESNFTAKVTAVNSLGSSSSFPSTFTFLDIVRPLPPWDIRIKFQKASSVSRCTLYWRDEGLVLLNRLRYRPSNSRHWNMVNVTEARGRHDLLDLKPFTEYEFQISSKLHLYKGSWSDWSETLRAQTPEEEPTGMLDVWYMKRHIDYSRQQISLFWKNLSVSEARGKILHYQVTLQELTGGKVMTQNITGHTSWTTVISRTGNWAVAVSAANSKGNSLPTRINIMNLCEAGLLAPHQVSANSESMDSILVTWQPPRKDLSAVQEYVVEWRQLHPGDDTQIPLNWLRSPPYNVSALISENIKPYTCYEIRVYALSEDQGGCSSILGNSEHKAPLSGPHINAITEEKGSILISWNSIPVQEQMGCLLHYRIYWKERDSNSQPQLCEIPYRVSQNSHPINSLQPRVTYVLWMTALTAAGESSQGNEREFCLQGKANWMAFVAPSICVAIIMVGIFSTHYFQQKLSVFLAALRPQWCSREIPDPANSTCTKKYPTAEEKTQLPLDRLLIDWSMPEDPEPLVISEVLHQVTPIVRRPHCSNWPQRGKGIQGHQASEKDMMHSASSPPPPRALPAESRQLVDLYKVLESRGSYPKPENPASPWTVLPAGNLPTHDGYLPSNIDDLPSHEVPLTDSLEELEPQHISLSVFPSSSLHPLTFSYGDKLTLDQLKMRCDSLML

T2: human IL-12RB2 overexpressed on 293T cells (Example 2) (human, UniProt Q99665 24-862)
T2 construct: whole, on cells
T2 sequence (looked up): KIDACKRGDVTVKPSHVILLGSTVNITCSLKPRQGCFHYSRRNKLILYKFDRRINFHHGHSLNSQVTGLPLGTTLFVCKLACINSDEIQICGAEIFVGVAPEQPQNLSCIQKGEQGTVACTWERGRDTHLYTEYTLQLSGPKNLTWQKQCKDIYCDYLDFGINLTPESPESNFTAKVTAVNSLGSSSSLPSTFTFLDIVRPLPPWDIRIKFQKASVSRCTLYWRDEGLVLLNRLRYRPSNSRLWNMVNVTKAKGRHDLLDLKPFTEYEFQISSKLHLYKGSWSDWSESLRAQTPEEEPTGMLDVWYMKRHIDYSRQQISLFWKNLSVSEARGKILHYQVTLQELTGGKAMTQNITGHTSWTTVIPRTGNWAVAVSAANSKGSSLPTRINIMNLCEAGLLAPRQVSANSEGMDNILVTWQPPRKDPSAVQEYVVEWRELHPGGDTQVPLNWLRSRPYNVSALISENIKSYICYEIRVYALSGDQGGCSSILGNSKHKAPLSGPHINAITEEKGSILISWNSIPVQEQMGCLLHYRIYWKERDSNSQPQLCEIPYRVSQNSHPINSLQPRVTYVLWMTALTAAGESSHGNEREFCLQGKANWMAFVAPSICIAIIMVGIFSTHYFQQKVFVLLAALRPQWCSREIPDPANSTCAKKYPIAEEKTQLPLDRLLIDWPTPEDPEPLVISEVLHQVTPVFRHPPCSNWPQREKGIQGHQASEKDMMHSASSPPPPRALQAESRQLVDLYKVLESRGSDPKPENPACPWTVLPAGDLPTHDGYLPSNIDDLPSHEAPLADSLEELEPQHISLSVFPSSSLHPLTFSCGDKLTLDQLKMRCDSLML

B1: 85801_10M19 (antibody, V domains shown)
VH: EVQLVESGGGLVQPGGSLRLSCAASGFTFSSYDMHWVRQATGKGLEWVSVIGTAGDTYYPGSVKGRFTISRENAKNSLYLQMNSLRAGDTAVYYCARSRGETDWYFDLWGRGTLVTVSS
VL: EIVLTQSPATLSLSPGERATLSCRASQSVSRLLAWYQQKPGQAPRLLIYDASNRATGIPARFSGSGSGTDFTLTISSLEPEDFAVYYCQQRRNWLTFGGGTKVEIK
notes: also called 85801_10M19A
B2: 85801_07A01 (antibody, V domains shown)
VH: EVQLVESGGGLVQPGGSLRLSCAASGFTFSSYWMSWVRQAPGKGLEWVANIKQDGSEKYYVDSVKGRFTISRDNAKNSLYLQMNSLRAEDTAVYYCAREGLQLGIFDYWGQGTLVTVSS
VL: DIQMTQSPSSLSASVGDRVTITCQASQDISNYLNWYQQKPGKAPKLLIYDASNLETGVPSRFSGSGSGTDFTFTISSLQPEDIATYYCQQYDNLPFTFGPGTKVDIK
notes: also called 85801_07A01A
B3: 85801_10F19 (antibody, V domains shown)
VH: QVQLVQSGAEVRKPGASVKVSCKASGYTFTDYYMHWVRQAPGQGREWMGWINPNSGGTHYAQKFQGRVTMTWDTSISTAYMELSRLRSDDTAVYYCAREGATTVYFDYWGQGTLVTVSS
VL: DIQLTQSPSFLSASVGDRVTLTCRASQGINNYLAWYQEKPGKAPNPLIYDASTLQSGVPSRFSGSGSGTEFTLTISSLQPEDFATYYCQQLNMYPYTFGQGTKLEIK
notes: also called 85801_10F19A
B4: 85801_06L19 (antibody, V domains shown)
VH: QVQLVQSGAEVKKPGASVKVSCKASGYTFTDYYIHWVRQAPGQGLEWMGWINPDSGGTHYAQKFQGRVTMTRDTSISTVYMDLSRLRSDDTAVYYCAREGEGLASFDSWGQGTLVTVSS
VL: DIQMTQSPSSLSASVGNRVTITCRASQGINNYLAWFQQKPGKAPKSLIYAASSLQSGVPSKFSGSGSGTDFTLTISSLQPEDFATYYCQQYNNYPFTFGPGTKVDIK
notes: also called 85801_06L19A
B5: 85802_08F20 (antibody, V domains shown)
VH: QVQLVQSGAEVKKPGASVKVSCKASGYTFIGYYIHWVRQAPGQGLEWMGWINPHSGGTNYAQKFQGRVTMTRDTSISTAYMELSRLRSDDTAIYYCTKEANNWGYAFDIWGQGTMVTVSS
VL: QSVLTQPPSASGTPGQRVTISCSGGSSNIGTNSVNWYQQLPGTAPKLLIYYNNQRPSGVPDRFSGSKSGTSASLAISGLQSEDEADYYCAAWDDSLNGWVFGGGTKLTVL
notes: also called 85802_08F20A
B6: 85802_10K12 (antibody, V domains shown)
VH: QVTLRESGPALVKPTQTLTLTCTFSGFSLSTSGMCVSWIRQPPGKALEWLALIYWDDDKYYSTSLKTRLTISKDTSKNQVVLTMTNMDPVDTATYYCARMRRGIEAFDIWGQGTMVTVFS
VL: QSVLTQPPSVSGAPGQRVTISCTGSSSNIGAGYDVHWYQQLPGTAPKLLIFGYSNRPSGVPVRFSGSKSGTSASLAITGLLAEDEADFYCQSFDISLTGWVFGGGTKLTVL
notes: also called 85802_10K12A
B7: 85802_06H06 (antibody, V domains shown)
VH: QVHLQESGPGLVKPSETLSLTCTVSGGSISYYYWNWIRQPPGKGLEWIASIYNSGNINYNPSLKSRVTISVDTSKNQFSLKLTSVTAADTAVYYCARGGYSYGYFDNWGQGILVTVSS
VL: SYELTQPPSVSVSPGQTASITCSGRELGNKYAYWYQQKPGQSPVLVIYEDYKRPSGIPERFSGSNSGNTATLTISGTQAMDEADYYCQAWDSSTVIFGGGTKLTVL
notes: also called 85802_06H06A
B8: 85802_06F06 (antibody, V domains shown)
VH: QVQLQESGPGLVKPSETLSLTCTVSGGSISSYYWSWIRQPPGKGLEWFGYIYDSGSTNYNPSLKSRVTISVDTSKNQFSLKLSSVTAADTAVYYCARGSYFWYFDLWGRGTLVTVSS
VL: B7 VL with R25D, E26K, N29A, Y33S, Q36H, E49Q, Y51T, I96V
notes: also called 85802_06F06A
B9: 85802_10M17 (antibody, V domains shown)
VH: EVLLVESGGGLVKPGGSLRLSCAASGFTFSSYSMNWVRQAPGKGLEWVSSISSSSDYIHYADSVRGRFTISRDNAKNSLYLQMNSLRAEDTAVYYCARSELGFDYWGQGTLVTVSS
VL: DIQMTQSPSSVSASVGDRVTITCRASQGISIWLAWYQQKPGKAPKPLIYAASSLQSGVPSRFSGSGSGTDFTLTISSLQPEDFATYYCQQANSFPLTFGGGTKVEIK
notes: also called 85802_10M17A
B10: 85802_06A17 (antibody, V domains shown)
VH: EVQLVQSGAEVKKPGESLKISCKGSGYSFTSYWIGWVRQMPGKGLECMGIIYPGDSDTRYSPSFQGQVTISADKSISTAYLQWSSLKASDTAMYYCARHEGAYWYFDLWGRGTLVTVSS
VL: QSVLTQPPSVSGAPGQRVTISCTGSSSNIGAGYDVHWYQQLPGTAPKVLIYGNSNRPSGVPDRFSGSKSGTSASLAITGLQAEDEADYYCQSLDTSHVVFGGGTKLTVL
notes: also called 85802_06A17A
B11: 85802_02K15 (antibody, V domains shown)
VH: EVQLVQSGTEVKKPGESLKISCKGSGYSFTSYWIGWVRQMPGKGLEWMGNIYPGDSDTRYSPSFQGHVTISADKSISTAYLQWSSLKASDTAMYYCARRGGGYWGQGTLVTVSS
VL: not shown
notes: also called 85802_02K15A

Target: T3, IL-12 receptor endogenously expressed on THP-1 cells (UniProt P42701 24-662; Q99665 24-862)
T3 construct: whole, on cells
Assay: FACS, hybridoma supernatant, THP-1

| Binder | Fold over buffer [fold] |
| --- | --- |
| B1 | 35 |
| B2 | 37 |
| B3 | 8 |
| B4 | 9 |

Target: T4, cyno IL-12RB1 overexpressed on 293T cells (Example 2) (cyno, UniProt A0A2K5VWV1 24-662)
T4 construct: whole, on cells
Assay: FACS, hybridoma supernatant, 293T

| Binder | Fold over parental 293T [fold] |
| --- | --- |
| B1 | 21 |
| B2 | 21 |
| B3 | 16 |
| B4 | 25 |

Target: T5, human IL-12RB1 overexpressed on 293T cells (Example 2) (human, UniProt P42701 24-662)
T5 construct: whole, on cells
Assay: FACS, hybridoma supernatant, 293T

| Binder | Fold over parental 293T [fold] |
| --- | --- |
| B1 | 58 |
| B2 | 57 |
| B3 | 41 |
| B4 | 73 |

Target: T3, IL-12 receptor endogenously expressed …
Assay: FACS, hybridoma supernatant, THP-1
Remark: another data set of the same source

| Binder | Fold over buffer [fold] |
| --- | --- |
| B5 | 21 |
| B6 | 27 |
| B7 | 34 |
| B8 | 35 |
| B9 | 21 |
| B10 | 28 |
| B11 | 53 |

Target: T1, cyno IL-12RB2 overexpressed on 293T …
Assay: FACS, hybridoma supernatant, 293T

| Binder | Fold over parental 293T [fold] |
| --- | --- |
| B5 | 8 |
| B6 | 13 |
| B7 | 10 |
| B8 | 14 |
| B9 | 12 |
| B10 | 11 |
| B11 | 6 |

Target: T2, human IL-12RB2 overexpressed on 293T …
Assay: FACS, hybridoma supernatant, 293T

| Binder | Fold over parental 293T [fold] |
| --- | --- |
| B5 | 3.4 |
| B6 | 3.3 |
| B7 | 2.9 |
| B8 | 3.3 |
| B9 | 3.8 |
| B10 | 2.8 |
| B11 | 3.3 |
